# Paper PMC8526979, “The predicted stem-loop structure in the 3′-end of the human norovirus antigenomic sequence is required for its genomic RNA synthesis by its RdRp” (The Journal of Biological Chemistry, 2021)
# What was measured:
# [1] = system: His-RdRp (NS7, RNA-dependent RNA polymerase) (Human norovirus GII.P3_GII.3 U201 strain); assay: competition; details: 50 mM Tris-HCl pH 7.4, 1.7% glycerol, 5 mM beta-mercaptoethanol, 0.5 ug/ul yeast RNA, 30 C 10 min, 20 ul; native PAGE at 4 C
# [2] = molecular target: T1, HuNV RdRp (His-RdRp; GII.P3 RdRp) (Norwalk-like virus, UniProt Q8JXI4); assay: RNA synthesis, dsRNA product after S1 nuclease, native PAGE with SYBR Green II; format: biochemical
# T1 construct: mature NS7 RdRp from ORF1 genome polyprotein, cDNA nt 3581-5113; N-terminal His6 tag (pET28b), E. coli ArcticExpress (DE3); 57 kDa by SDS-PAGE
Molecule,binding signal (% complex remaining) [1],IC50 [2]
31AS RNA,47.3,
100AS RNA,13.5,
"C[C@@]1(O)[C@H](O)[C@@H](COP(=O)(O)OP(=O)(O)OP(=O)(O)O)O[C@H]1n1ccc(N)nc1=O [2′CM-CTP, 2′-C-methylcytidine triphosphate]",,57 ± 20 µM
